Literature values, collected in article PMC4798892.
pKd: −log10 of the molar value.

Assays:
[1] = biological target: Histone H3 (H3K9me3S10ph) (Homo sapiens) (UniProt P68431)
[2] = biological target: Histone H3 (H3K9me3) (Homo sapiens) (UniProt P68431)
[3] = biological target: Histone H3 (H3K4me0) (Homo sapiens) (UniProt P68431)

pKd [1]: 6.72 | pKd [2]: 6.96 | pKd [3]: 5.52
Substance: ATRX ADD (from UniProt P46100)
